Laboratory results taken from US20060104980A1.

How the values were obtained:
[1] = target: HCV E2 protein of genotype 1a expressed by vaccinia virus construct Q1a (Hepatitis C virus genotype 1a); test: competition on GNA-captured E2; 20 µg/ml competitor against biotinylated CBH-4G
[2] = target: HCV E2 protein of genotype 1b expressed by vaccinia virus construct Q1b (Hepatitis C virus genotype 1b); test: competition ELISA; competitor CBH-2 against biotinylated CBH-5
[3] = target: HCV E2 protein of genotype 1a expressed by vaccinia virus construct Q1a (Hepatitis C virus genotype 1a); test: as above
[4] = target: HCV 1b E2 construct sf1b-E2 (amino acids 384-661 in pDisplay) (influenza virus; Hepatitis C virus genotype 1b); test: GNA capture ELISA, HEK-293 extracts
[5] = target: HCV 1b E2 deletion construct pDC-644 (Hepatitis C virus genotype 1b); test: GNA capture ELISA, HEK-293 extracts
[6] = target: HCV E2 protein of genotype 2a expressed by vaccinia virus construct Q2a (Hepatitis C virus genotype 2a); test: competition ELISA; 20 µg/ml competitor against 2 µg/ml biotinylated CBH-2
[7] = target: HCV E2 protein of genotype 1b expressed by vaccinia virus construct Q1b (Hepatitis C virus genotype 1b); test: as above
[8] = target: HCV E2 protein of genotype 1a expressed by vaccinia virus construct Q1a (Hepatitis C virus genotype 1a); test: as above
[9] = target: HCV E2 protein of genotype 2b expressed by vaccinia virus construct Q2b (Hepatitis C virus genotype 2b); test: as above
[10] = target: HCV E2 1a protein produced in mammalian cells (Rosa et al.) (Hepatitis C virus genotype 1a); test: NOB assay, inhibition of E2 binding to CD81 expressing Molt-4 cells, flow cytometry
[11] = target: HCV 1b E2 construct sf1b-E2 (amino acids 384-661 in pDisplay) (influenza virus; Hepatitis C virus genotype 1b); test: flow cytometry, CHO cells expressing sf1b-E2, 10 ug/ml
[12] = target: HCV 1b E2 deletion construct pDN-470 (Hepatitis C virus genotype 1b) (UniProt Q9WMX2); test: GNA capture ELISA, HEK-293 extracts
[13] = target: HCV 1b E2 deletion construct pDN-447 (Hepatitis C virus genotype 1b) (UniProt P29846); test: GNA capture ELISA, HEK-293 extracts
[14] = target: HCV 1b E2 (Q1b) bound to GST-CD81-LEL (Hepatitis C virus genotype 1b; human) (UniProt P60033); test: ELISA, 1b E2 captured by CD81-LEL; 50% of maximum binding
[15] = target: HCV E2 1a protein produced in mammalian cells (Rosa et al.) (Hepatitis C virus genotype 1a); test: NOB assay
[16] = target: denatured HCV 1b E2 protein (Q1b) (Hepatitis C virus genotype 1b); test: GNA capture ELISA, denatured against native E2 (FIG. 9)
[17] = target: HCV 1b E2 construct sf1b-E2 (amino acids 384-661 in pDisplay) (influenza virus; Hepatitis C virus genotype 1b); test: flow cytometry, CHO cells expressing sf1b-E2
[18] = target: HCV E2 protein of genotype 1b expressed by vaccinia virus construct Q1b (Hepatitis C virus genotype 1b); test: competition ELISA; 25 µg/ml competitor against 5 µg/ml biotinylated CBH-5
[19] = target: HCV E2 protein of genotype 1a expressed by vaccinia virus construct Q1a (Hepatitis C virus genotype 1a); test: as above
[20] = target: HCV 1b E2 deletion construct pDN-470 (Hepatitis C virus genotype 1b) (UniProt Q9WMX2); test: flow cytometry, transiently transfected HEK-293 cells, 10 ug/ml
[21] = target: HCV 1b E2 deletion construct pDN-447 (Hepatitis C virus genotype 1b) (UniProt P29846); test: as above
[22] = target: HCV 1b E2 deletion construct pDC-644 (Hepatitis C virus genotype 1b); test: as above
[23] = target: HCV 1b E2 deletion construct pDC-579 (Hepatitis C virus genotype 1b); test: as above
[24] = target: HCV E2 protein of genotype 2a expressed by vaccinia virus construct Q2a (Hepatitis C virus genotype 2a); test: competition ELISA; competitor CBH-5 against biotinylated CBH-2
[25] = target: HCV E2 protein of genotype 1b expressed by vaccinia virus construct Q1b (Hepatitis C virus genotype 1b); test: as above
[26] = target: HCV E2 protein of genotype 1a expressed by vaccinia virus construct Q1a (Hepatitis C virus genotype 1a); test: as above
[27] = target: HCV E2 protein of genotype 2b expressed by vaccinia virus construct Q2b (Hepatitis C virus genotype 2b); test: as above

| Substance | percent inhibition of biotinylated CBH-4G binding [1] [%] | OD [4] [od] | OD [5] [od] | percent inhibition of biotinylated CBH-2 binding [6] [%] | percent inhibition of biotinylated CBH-2 binding [7] [%] | percent inhibition of biotinylated CBH-2 binding [8] [%] | percent inhibition of biotinylated CBH-2 binding [9] [%] | IC50 [10] [mg/L] | mean fluorescence [11] | OD [12] [od] | OD [13] [od] | mean fluorescence [20] | mean fluorescence [21] | mean fluorescence [22] | mean fluorescence [23] | other results |
| --- | --- | --- | --- | --- | --- | --- | --- | --- | --- | --- | --- | --- | --- | --- | --- | --- |
| HMAb CBH-2 (antibody) | < 50 | > 0.5 | 0.1 to 0.5 | > 75 | > 75 | > 75 | > 75 | 5 | 338 |  |  |  |  |  |  | percent inhibition of biotinylated CBH-5 binding [2]: 50%; percent inhibition of biotinylated CBH-5 binding [3]: 50% |
| HMAb CBH-17 (antibody) | < 50 | > 0.5 |  |  |  |  |  |  | 23 | > 0.5 | > 0.5 |  |  |  |  | EC50 [14]: 3 mg/L; IC50 [15]: > 25 mg/L; percent of reactivity retained with denatured E2 [16]: 90%; fold reduced staining relative to the other HMAbs [17]: 10 fold |
| HMAb CBH-5 (antibody) | < 50 | > 0.5 | > 0.5 | > 75 | > 75 | > 75 | > 75 | 2 | 546 |  |  | 2 | 2 | 28 | 2 | percent inhibition of biotinylated CBH-5 binding [18]: 85%; percent inhibition of biotinylated CBH-5 binding [19]: 85%; percent inhibition of biotinylated CBH-2 binding [24]: 80%; percent inhibition of biotinylated CBH-2 binding [25]: 80%; percent inhibition of biotinylated CBH-2 binding [26]: 80%; percent inhibition of biotinylated CBH-2 binding [27]: 80% |
| HMAb CBH-8C (antibody) | < 50 | > 0.5 | > 0.5 | > 75 | > 75 | > 75 | > 75 | 10 | 282 |  |  |  |  |  |  |  |
| HMAb CBH-7 (antibody) | < 50 | > 0.5 | > 0.5 |  |  | 60 |  | 7 | 303 | > 0.5 | > 0.5 | 14 | 26 | 27 | 2 |  |
| HMAb CBH-8E (antibody) | < 50 | > 0.5 | 0.1 to 0.5 | > 75 | > 75 | > 75 | > 75 | 8 | 408 |  |  |  |  |  |  | percent inhibition of biotinylated CBH-5 binding [18]: 75%; percent inhibition of biotinylated CBH-5 binding [19]: 75% |
| HMAb CBH-4B (antibody) | < 50 | > 0.5 | > 0.5 |  |  |  |  |  | 241 | > 0.5 | > 0.5 | 9 | 21 | 18 | 2 | EC50 [14]: 0.4 mg/L; IC50 [15]: > 25 mg/L |
